Measured values taken from patent US20120064001A1 (AFFITECH RESEARCH, published 2012).

What was measured:
[1] = biological target: T1, human VEGF-A (human, UniProt P15692-4 27-191, limits assumed); assay: SPR (Biacore T100); IgG over 100 RU human VEGF-A on a CM5 chip; 1:1 fit; 25°C
T1 construct: Sources differ between assays (Dr. Brekken; R&D Systems); also called VEGF-biotin (biotinylated form in the receptor ELISA)
Description: (§1) The background signal from a flow cell coated with BSA was subtracted from the binding curves. The binding affinity expressed as the KD was calculated by the 1:1 Fitting model using software belonging to the Biacore T100 machine.

[2] = biological target: T1, human VEGF-A; assay: SPR (Biacore T100); IgG over 100 RU human VEGF-A on a CM5 chip
Description: as §1

[3] = biological target: T1, human VEGF-A; assay: SPR (Biacore 3000); IgG over immobilized VEGF-A; 1:1 binding model; initial study; initial study; Biacore 3000; IgG over immobilized VEGF-A
[4] = biological target: T1, human VEGF-A; assay: SPR (Biacore T100); IgG over 100 RU human VEGF-A on a CM5 chip; 1:1 fit; 37°C
Description: as §1

T1 sequence (P15692 other isoform, or with tags, fused parts or gaps limits assumed): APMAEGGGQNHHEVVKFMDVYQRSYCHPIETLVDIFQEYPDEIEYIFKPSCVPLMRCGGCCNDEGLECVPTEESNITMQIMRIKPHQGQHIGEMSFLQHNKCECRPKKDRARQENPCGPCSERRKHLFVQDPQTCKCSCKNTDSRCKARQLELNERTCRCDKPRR

Kd [1]: 3.21 nM
fold reduction of KD, 25°C versus 37°C [2]: < 2 fold
Kd [3]: 6.7 nM
Kd [4]: 5.22 nM
B1: r84/PGN311 full length fully human IgG (antibody, V domains shown)
VH: QVQLVQSGAEVKKPGASVKVSCKASGGTFSSYAISWVRQAPGQGLEWMGGFDPEDGETIYAQKFQGRVTMTEDTSTDTAYMELSSLRSEDTAVYYCATGRSMVRGVIIPFNGMDVWGQGTTVTVSS
VL: not shown
notes: Human IgG1/kappa (Lonza pCon IgG1a and kappa vectors, CHO K1SV cells); also called r84 IgG; r84/PGN311 IgG
